# Values joined by “and” are separate entries in the source; they are usually repeats but may differ in a detail not shown here. Equal entries are not always repeated. Where two headings read alike, the source gives them in different places.
# T1: SlmA (Escherichia coli, UniProt P0C093 1-198)
# T1 sequence: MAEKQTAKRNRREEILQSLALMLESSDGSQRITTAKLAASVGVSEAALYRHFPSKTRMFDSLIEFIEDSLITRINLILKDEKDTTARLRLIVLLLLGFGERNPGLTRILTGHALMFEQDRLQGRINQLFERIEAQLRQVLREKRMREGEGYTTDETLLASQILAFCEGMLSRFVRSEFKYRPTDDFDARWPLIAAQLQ
# T2: SlmA (synthetic lethal with a defective Min system) (E. coli), P0C093
# T2 chain: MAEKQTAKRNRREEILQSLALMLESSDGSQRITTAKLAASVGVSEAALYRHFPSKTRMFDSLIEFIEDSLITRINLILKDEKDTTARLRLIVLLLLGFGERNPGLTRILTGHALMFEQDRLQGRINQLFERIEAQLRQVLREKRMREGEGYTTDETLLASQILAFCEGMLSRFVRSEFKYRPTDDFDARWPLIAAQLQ
# B1: FtsZ, full length (E. coli) (natural protein)
# chain: MFEPMELTNDAVIKVIGVGGGGGNAVEHMVRERIEGVEFFAVNTDAQALRKTAVGQTIQIGSGITKGLGAGANPEVGRNAADEDRDALRAALEGADMVFIAAGMGGGTGTGAAPVVAEVAKDLGILTVAVVTKPFNFEGKKRMAFAEQGITELSKHVDSLITIPNDKLLKVLGRGISLLDAFGAANDVLKGAVQGIAELITRPGLMNVDFADVRTVMSEMGYAMMGSGVASGEDRAEEAAEMAISSPLLEDIDLSGARGVLVNITAGFDLRLDEFETVGNTIRAFASDNATVVIGTSLDPDMNDELRVTVVATGIGMDKRPEITLVTNKQVQQPVMDRYQQHGMAPLTQEQKPVAKVVNDNAPQTAKEPDYLDIPAFLRKQAD
# B2: SlmA (synthetic lethal with a defective Min system) (natural protein)
# chain: MAEKQTAKRNRREEILQSLALMLESSDGSQRITTAKLAASVGVSEAALYRHFPSKTRMFDSLIEFIEDSLITRINLILKDEKDTTARLRLIVLLLLGFGERNPGLTRILTGHALMFEQDRLQGRINQLFERIEAQLRQVLREKRMREGEGYTTDETLLASQILAFCEGMLSRFVRSEFKYRPTDDFDARWPLIAAQLQ
# Experiments:
# [1] = biological target: B2; assay: SAXS
# [2] = biological target: the molecule itself; assay: SAXS
# [3] = biological target: T1, SlmA; assay: fluorescence polarization
# [4] = biological target: B1; assay: fluorescence polarisation
# [5] = biological target: the molecule itself; assay: SEC
# [6] = biological target: B1; assay: fluorescence polarisation; remark: listed apart in the source
# [7] = biological target: T2, SlmA (synthetic lethal with a defective …); assay: fluorescence polarisation; details: remark: other sources report otherwise
binder,measurement,setting,value
B1,stoichiometry N,[1],1 SlmA:FtsZ
same,binding result,[2],binds
randomized DNA 2 (dsDNA) DNA 1: CCTCAGCTGAGG DNA 2: CCTCAGCTGAGG,binding result,[3],no binding
B2,Kd,[4],119 ± 11 nM
same,stoichiometry N,[5],2
same,Kd,[6],142 nM and 130 nM and 205 nM
SBS position 3 G to A (symmetric double mutant) (dsDNA) DNA 1: GTAAGTACTTAC DNA 2: GTAAGTACTTAC,Kd,[3],~60 nM
randomized DNA 1 (dsDNA) DNA 1: AGTCTATAGACT DNA 2: AGTCTATAGACT,binding result,[3],no binding
"C-terminal truncated FtsZ, FtsZ(1–360), P0A9A6 1-360 (domain or fragment) MFEPMELTNDAVIKVIGVGGGGGNAVEHMVRERIEGVEFFAVNTDAQALRKTAVGQTIQIGSGITKGLGAGANPEVGRNAADEDRDALRAALEGADMVFIAAGMGGGTGTGAAPVVAEVAKDLGILTVAVVTKPFNFEGKKRMAFAEQGITELSKHVDSLITIPNDKLLKVLGRGISLLDAFGAANDVLKGAVQGIAELITRPGLMNVDFADVRTVMSEMGYAMMGSGVASGEDRAEEAAEMAISSPLLEDIDLSGARGVLVNITAGFDLRLDEFETVGNTIRAFASDNATVVIGTSLDPDMNDELRVTVVATGIGMDKRPEITLVTNKQVQQPVMDRYQQHGMAPLTQEQKPVAKVVND",Kd,[7],148 nM
